Reference: doi:10.1101/2023.03.27.534416 (bioRxiv, 2023)

Target: the molecule itself
Assay: MST

B1: MRE11 structured-domain (1-411 aa) (domain or fragment, UniProt P49959 1-411, looked up)
chain: MSTADALDDENTFKILVATDIHLGFMEKDAVRGNDTFVTLDEILRLAQENEVDFILLGGDLFHENKPSRKTLHTCLELLRKYCMGDRPVQFEILSDQSVNFGFSKFPWVNYQDGNLNISIPVFSIHGNHDDPTGADALCALDILSCAGFVNHFGRSMSVEKIDISPVLLQKGSTKIALYGLGSIPDERLYRMFVNKKVTMLRPKEDENSWFNLFVIHQNRSKHGSTNFIPEQFLDDFIDLVIWGHEHECKIAPTKNEQQLFYISQPGSSVVTSLSPGEAVKKHVGLLRIKGRKMNMHKIPLHTVRQFFMEDIVLANHPDIFNPDNPKVTQAIQSFCLEKIEEMLENAERERLGNSHQPEKPLVRLRVDYSGGFEPFSVLRFSQKFVDRVANPKDIIHFFRHREQKEKTGEE
modifications: amine-reactive AlexaFluor-647 dye on the labelled copy; the titrated copy is unlabelled
  Kd: 370 ± 80 nM
